Data as given in patent publication US20200181601A1 (INSTITUT PASTEUR, published 2020).

T1: PulD-N, soluble monomeric fragment corresponding to the N-terminal region of PulD from Klebsiella oxytoca (Klebsiella oxytoca, UniProt P15644 28-264)
T1 construct: domain: N-terminal region of PulD; also called N-terminal domain of PulD
T1 sequence: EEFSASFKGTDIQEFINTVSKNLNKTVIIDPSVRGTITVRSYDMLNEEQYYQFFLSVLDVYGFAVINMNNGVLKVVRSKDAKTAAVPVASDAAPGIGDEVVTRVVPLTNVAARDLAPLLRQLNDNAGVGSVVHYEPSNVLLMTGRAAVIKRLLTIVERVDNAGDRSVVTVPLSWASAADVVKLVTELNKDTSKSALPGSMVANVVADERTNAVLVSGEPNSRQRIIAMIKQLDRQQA

T2: full-length PulD, monomeric (Klebsiella oxytoca, UniProt P15644 28-660)
T2 sequence: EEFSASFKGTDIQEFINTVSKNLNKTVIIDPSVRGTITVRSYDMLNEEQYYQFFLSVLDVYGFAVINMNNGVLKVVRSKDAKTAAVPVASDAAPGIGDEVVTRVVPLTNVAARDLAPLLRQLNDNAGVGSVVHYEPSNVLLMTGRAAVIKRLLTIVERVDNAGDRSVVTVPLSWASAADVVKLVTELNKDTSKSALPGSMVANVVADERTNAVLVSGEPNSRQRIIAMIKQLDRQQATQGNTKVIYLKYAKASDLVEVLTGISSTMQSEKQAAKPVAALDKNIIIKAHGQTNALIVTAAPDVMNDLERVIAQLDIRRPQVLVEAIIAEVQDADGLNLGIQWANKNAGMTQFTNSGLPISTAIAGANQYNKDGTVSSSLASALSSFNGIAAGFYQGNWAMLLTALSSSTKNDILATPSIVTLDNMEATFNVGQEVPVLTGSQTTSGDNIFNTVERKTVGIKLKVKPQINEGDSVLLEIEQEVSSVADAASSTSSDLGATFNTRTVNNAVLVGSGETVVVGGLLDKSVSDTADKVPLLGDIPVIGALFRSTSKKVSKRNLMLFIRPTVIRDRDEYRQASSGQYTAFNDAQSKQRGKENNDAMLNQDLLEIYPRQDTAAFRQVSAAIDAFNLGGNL


Tests used:
[1] = biological target: T1, PulD-N, soluble monomeric fragment …; assay: SPR, immobilized biotinylated PulD-N
[2] = biological target: T1, PulD-N, soluble monomeric fragment …
[3] = biological target: T2, full-length PulD, monomeric; assay: cell-based or functional assay
[4] = biological target: T3, PulD-CS, PulD variant lacking the N-domain (Klebsiella oxytoca, UniProt P15644 28-660); assay: far-Western immunoblot
T3 construct: domain: PulD variant lacking the N-domain

| Binder | binding result [1] | ratio signal/background [2] | inhibition of pullulanase secretion, strain PAP5198 pCHAP231, IPTG induced [3] | binding result [4] |
| --- | --- | --- | --- | --- |
| wild type Sac7d (recombinant) (other, also called Sac7d wt; wt Sac7d) VKVKFKYKGEEKEVDTSKIKKVWRVGKMVSFTYDDNGKTGRGAVSEKDAPKELLDMLARAEREKK | no binding |  |  |  |
| Sac7*6-PhoA chimera (binder 6 fused to the N-terminus of E. coli alkaline phosphatase) (designed binder, also called clone 6-alkalin phosphatase fusion; Sac7*-PhoA) RTPEMPVDGTGSVKVKFVLGGEEKEVDTSKIRHVYRYGKHVTFSYDDNGKLGLGLVKEKDAPKELLDMLARAEREKKLRAQPGVLENRAAQGDITAPGGARRLTGDQTAALRDSLSDKPAKNIILLIGDGMGDSEITAARNYAEGAGGFFKGIDALPLTGQYTHYALNKKTGKPDYVTDSAASATAWSTGVKTYNGALGVDIHEKDHPTILEMAKAAGLATGNVSTAELQGATPAALVAHVTSRKCYGPSATSEKCPGNALEKGGKGSITEQLLNARADVTLGGGAKTFAETATAGEWQGKTLREQAQARGYQLVSDAASLNSVTEANQQKPLLGLFADGNMPVRWLGPKATYHGNIDKPAVTCTPNPQRNDSVPTLAQMTDKAIELLSKNEKGFFLQVEGASIDKQGHAANPCGQIGETVDLDEAVQRALEFAKKEGNTLVIVTADHAHASQIVAPDTKAPGLTQALNTKDGAVMVMSYGNSEEDSQEHTGSQLRIAAYGPHAANVVGLTDQTDLFYTMKAALGLK |  | > 10 | > 90% | no binding |
| Sac7*33-PhoA chimera (binder 33 fused to the N-terminus of E. coli alkaline phosphatase) (designed binder) RTPEMPVDGTGSVKVKFTWYGEEKEVDTSKIMSVCRWGKRVAFSYDDNGKIDYGLVDEKDAPKELLDMLARAEREKKLRAQPGVLENRAAQGDITAPGGARRLTGDQTAALRDSLSDKPAKNIILLIGDGMGDSEITAARNYAEGAGGFFKGIDALPLTGQYTHYALNKKTGKPDYVTDSAASATAWSTGVKTYNGALGVDIHEKDHPTILEMAKAAGLATGNVSTAELQGATPAALVAHVTSRKCYGPSATSEKCPGNALEKGGKGSITEQLLNARADVTLGGGAKTFAETATAGEWQGKTLREQAQARGYQLVSDAASLNSVTEANQQKPLLGLFADGNMPVRWLGPKATYHGNIDKPAVTCTPNPQRNDSVPTLAQMTDKAIELLSKNEKGFFLQVEGASIDKQGHAANPCGQIGETVDLDEAVQRALEFAKKEGNTLVIVTADHAHASQIVAPDTKAPGLTQALNTKDGAVMVMSYGNSEEDSQEHTGSQLRIAAYGPHAANVVGLTDQTDLFYTMKAALGLK |  | > 10 | > 90% |  |
| Sac7*40-PhoA chimera (binder 40 fused to the N-terminus of E. coli alkaline phosphatase) (designed binder, also called Sac7*-PhoA) RTPEMPVDGTGSVKVKFGEHGEEKEVDTSKIMSVVRFGKWVCFRYDDNGKAGYGAVLEKDAPKELLDMLARAEREKKLRAQPGVLENRAAQGDITAPGGARRLTGDQTAALRDSLSDKPAKNIILLIGDGMGDSEITAARNYAEGAGGFFKGIDALPLTGQYTHYALNKKTGKPDYVTDSAASATAWSTGVKTYNGALGVDIHEKDHPTILEMAKAAGLATGNVSTAELQGATPAALVAHVTSRKCYGPSATSEKCPGNALEKGGKGSITEQLLNARADVTLGGGAKTFAETATAGEWQGKTLREQAQARGYQLVSDAASLNSVTEANQQKPLLGLFADGNMPVRWLGPKATYHGNIDKPAVTCTPNPQRNDSVPTLAQMTDKAIELLSKNEKGFFLQVEGASIDKQGHAANPCGQIGETVDLDEAVQRALEFAKKEGNTLVIVTADHAHASQIVAPDTKAPGLTQALNTKDGAVMVMSYGNSEEDSQEHTGSQLRIAAYGPHAANVVGLTDQTDLFYTMKAALGLK |  | > 10 | > 90% | no binding |
